According to paper PMC3382582, “The Estrogen-Related Receptor Alpha Upregulates Secretin Expressions in Response to Hypertonicity and Angiotensin II Stimulation”:

Biological target: T1, ERRα (in vitro translated) (Mus musculus, UniProt O08580 1-422)
T1 sequence: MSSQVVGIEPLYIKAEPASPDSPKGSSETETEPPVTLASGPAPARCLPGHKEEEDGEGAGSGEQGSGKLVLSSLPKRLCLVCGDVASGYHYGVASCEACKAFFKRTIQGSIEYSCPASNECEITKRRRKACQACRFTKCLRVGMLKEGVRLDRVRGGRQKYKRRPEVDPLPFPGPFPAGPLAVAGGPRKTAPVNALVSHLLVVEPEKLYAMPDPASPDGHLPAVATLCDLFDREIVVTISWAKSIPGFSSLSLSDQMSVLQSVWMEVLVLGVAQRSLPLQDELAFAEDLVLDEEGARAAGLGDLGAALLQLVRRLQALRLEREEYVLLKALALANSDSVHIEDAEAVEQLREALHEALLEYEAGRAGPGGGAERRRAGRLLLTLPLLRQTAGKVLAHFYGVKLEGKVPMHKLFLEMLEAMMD
Test: EMSA; 2.5 mM MgCl2, poly(dI:dC); EMSA: 10 mM Tris pH 7.5, 50 mM NaCl, 2.5 mM MgCl2, 0.5 mM DTT, 4% glycerol, 2 µg poly(dI:dC), 1 pmol probe, 20 µl, room temperature 15 min; 5% polyacrylamide gel
Details: protein: ivt; label: 32P 5' end label (T4 PNK); strands as printed are 17 and 16 nt; S6 lacks one G relative to the exact complement of S5 (possible misprint)

B1: GS-ERRα (SCT promoter ERE-half site oligo) (dsDNA)
DNA 1: GCCCCTGACCTTCCCGG
DNA 2: CCGGGAAGGTCAGGGC
binding result: binds
